# In the nanobody polyreactivity screen of Harvey et al. (2022):
# Experiment: yeast display, Sf9 membrane polyspecificity reagent, FACS + sequencing; frameworks hold sequencing errors
# Outline: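 Genes from sorted yeast were amplified by colony PCR, read by MiSeq 2 × 250 sequencing and filtered on CDR length. These cells carried a synthetic nanobody library in Saccharomyces cerevisiae BJ5465 and were sorted by FACS into low and high (top ~1%) gates on anti-HA and streptavidin fluorescence. Polyreactivity is labelled according to the gate of origin.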
row,Sequence,polyreactivity (PSR sort gate)
1,QVQLVESGGGLVQAGGSLRLSCAASGLTFRYYAMGWYRQAPGKERELVAAITASVGSTYYADSVKGRFTISRDNAKNTVYLQMNSLKPEDTAVYYCAAEGTPGPGGGYYWGQGTQVTVSS,low polyreactivity
2,QVQLVESGGGLVQAGGSLRLSCAASGLTFRYYTMGLYRQAPGKERELVASITSGGITYYADSVKGRFTISRDNAKNTVYLQMYSLKPEDTAVYYCAKGSYRTTYGALGVKYGYWGQGTQVNVSS,high polyreactivity
3,QVQLVESGGGLVQAGGSLRLSCAASGLTFSDYAMGWYRQAPGKERELVAAITYNGGSTYYADSVKGRFTISRDNAKNTVYLQMNSLKPEDTAVYYCAADTDDVGLRDYWGQGTQVTVSS,low polyreactivity
4,QVQLVESGGGLVQAGGSLRLSCAASGLTFSDYAMGWYRQATGKEREFVAAITRNGGSTRYADSVKGRFTISRDNAKNTVYLQMNSLKPEDTAVYYCAADWSYEYGYWGQGTQVTVSS,low polyreactivity
5,QVQLVESGGGLVQAGGSLRLSCAASGLTFSFYAMGWYIPAPGKDTERVAAISSGGGITYYADSVKGRFTISRDNAKNTVYLQMNSLKPEDTALYYCNTDDYYQYWVPSEYYYCGQGTQVTVSS,low polyreactivity
6,QVQLVESGGGLVQAGGSLRLSCAASGLTFSIYAMGWYRPAPGKERELVAGISQSGGSTYADSVKGRFTISRDNAKNTVYLQMNSLKPEDTAVYYCAKEFEWVGSPSTVDGLEYWGHGTQVTVSS,low polyreactivity
7,QVQLVESGGGLVQAGGSLRLSCAASGLTFSKYAMGWYRQAPGKERELVAAINRSDGGTYYADSVKGRFTISRDNAKNTVYLQMNSLKPEDTAVYYCNAVVLYGWYGRRYSSRLDYWGQGTQVTVSS,high polyreactivity
8,QVQLVESGGGLVQAGGSLRLSCAASGLTFSQNAMGWYRQAPGKERELVAAITRSGSTTHYADSVKGRFTISRDNAKNTVYLQMNSLKPEDTAVYYCAAVAFQTRYYYWGQGTQVTVSS,high polyreactivity
9,QVQLVESGGGLVQAGGSLRLSCAASGLTFSRYAMGWYRQATGKERELVAAITSNGGSTYYADSVKGRFTISRDNAKNTVYLQMNSLKPDDTAVYYCATGYPIDLGREFDYWGQGIQVTVSS,high polyreactivity
10,QVQLVESGGGLVQAGGSLRLSCAASGLTFSRYARGWYRQAPGKERELVAAISGSGGSTYYADSVKGRFTISRDNAKNTVYLQMNSLKPEDTAVYYCNKYRATNSARDYWGQGTQVTVSS,high polyreactivity
11,QVQLVESGGGLVQAGGSLRLSCAASGLTFSTNDMGWYRQAPGKEREFVAAISFNGGSTYYADSVKGRFTLSRDNAKNTVYLQMNSLKPEDTAVYYCAAGSDYGLYYGFDFWGQGTQVTVSS,high polyreactivity
12,QVQLVESGGGLVQAGGSLRLSCAASGLTFSVYAMGWYRQAPGKDRELVAAISGSGGSTYYADSVKGRFTISRDNAKNTVYLQMNSLKPEDTAVYYCAADGRYFRAVFRLYDYWGQGTQVTVSS,low polyreactivity
13,QVQLVESGGGLVQAGGSLRLSCAASGLTFSYYAMGWSRQAPGKERELVAAISRGGRTNYADSVKGRFTISRDNAKNTVYLQMNSLKPEDTAVYYCAARFVVQGHSSPYDYWGQGTQVTVSS,high polyreactivity
14,QVQLVESGGGLVQAGGSLRLSCAASGLTFSYYAMGWYRQAPGKERELVAASSWSGGSTYYADSVKGRFTISRDNAKNTVYLQMNSLKPDDTAVYYCAKYPNRHYWYDYWGQGTQVTVSS,low polyreactivity
15,QVQLVESGGGLVQAGGSLRLSCAASGLTFTPNAMGWYRQAPGKEREFVAAITWRGGRTYYADSVKGRFTISRDNAKNTVYLQMNSLKPEDTAVYYCAADSFKGYDYWGQGTQVTVSS,high polyreactivity
16,QVQLVESGGGLVQAGGSLRLSCAASGLTFTTYAMGWYRQAPGKERELVAAISRRGSRTYYADSVKGRFTISRDNAKNTVYLQMNSLKPEDTAVYYCARRAGSYPYGYTGYDYWGQGTQVTVSS,high polyreactivity
17,QVQLVESGGGLVQAGGSLRLSCAASGLTFTYNAMGWYRQAPGKERELVAAISKRGGSTYYADSVKGRFTISRDNAKNTVYLQMNSLKPEDTAVYYCNARTTTRSYPAFDYWGQGTQVTVSS,high polyreactivity
18,QVQLVESGGGLVQAGGSLRLSCAASGLTFVAYGMGWYRQAPGKERELVATIRWRGGSTYYADSVKGRFTISRDNAKNTVYLQMNSLKPEDTAVYYCAATRARRWSSPGQYGYWGQGTQVTVSS,high polyreactivity
19,QVQLVESGGGLVQAGGSLRLSCAASGLTFVTYAKGWYRQAPGKERELVAAISYSGGSTYYADSVKGRFTISRDNAKNTVYLQMNSLKPEDTAVYYCNARSPQPDGRPPYNYWGQGTQVTVSS,high polyreactivity
20,QVQLVESGGGLVQAGGSLRLSCAASGLTFVVYAMGWYRQATGKERELVASITSSGGRTYYADSVKGRFTISRDNAKNTVYLQMTSLKPEDTAVYYCAAVRRRTRYGYRYDYWGQGTQVTVSS,high polyreactivity

row,Sequence,polyreactivity (PSR sort gate)
1,QVQLVESGGGLVQAGGSLRLSCAASGLTFVYNAMGWYRQAPGKERELVATISRGGSTYYADSVKGRFTISLDNAMNTVYLQMTSLKPEDTAVYYCNDDGYYDYDYGYWGQGTQVTVSS,low polyreactivity
2,QVQLVESGGGLVQAGGSLRLSCAASGLTFVYYAMGWYRQAPGKERELVAAISRSGGATYYADSVKGRFTISRDNAKNTVYLQMNSLKPEDTAVYYCAADATKWIGVVTMDYWGQGTQVTVAS,high polyreactivity
3,QVQLVESGGGLVQAGGSLRLSCAASGLTFVYYAMGWYRQAPGKERELVASISSTGRTYYADSVKGRFTISRDNAKNTVYLQMNSLKPEDTAVYFSAARSTYFKADYWGQGTQVTVSS,high polyreactivity
4,QVQLVESGGGLVQAGGSLRLSCAASGLTFVYYAMGWYRQAPGKERELVAVISSSGGSTYYADSVKGRFTISRDNAKNTVYLQMNSLKPEDTAVYYCAAPRQVYYQTDNDYWGQGTLVTVSS,high polyreactivity
5,QVQLVESGGGLVQAGGSLRLSCAASGLTFWHYAMGWYRQAHGKERELVAAISSGGRTYYADSVKGRFTISRDNAKNTVYLKMNSLKPEDSAVYYCAARGPQYYVYGYDYWGQGTQVTVSS,high polyreactivity
6,QVQLVESGGGLVQAGGSLRLSCAASGLTFWNNAMGWYRQAPGKERELVARINNGDNTYYADSVKGRFTISRDNAKNTVYLQMNSLKPEDTAVYYCAAKRYSNIPWIHDISTFYYWGQGTQVTVSS,low polyreactivity
7,QVQLVESGGGLVQAGGSLRLSCAASGLTFWYYAMGWYRQAPGKERELVAAITISGGSTYYADSVKGRFTISRDNAKNTVYLQMNRLQPEDTAVYYCAKTFSYTGRYWGYDYWGKGTQVTVSS,high polyreactivity
8,QVQLVESGGGLVQAGGSLRLSCAASGLTFYANAMGWYRQAPGKERELVATISVGTDSTNYADSVKGRFTISRDNAKYTVYLQMNRLKPEDTAVYYCNALYEEYYAQDPYDYWGQGTQVTVSS,high polyreactivity
9,QVQLVESGGGLVQAGGSLRLSCAASGLTFYGYGMGWYRQAPGKERELVASITSGGNTYYADSVKGRFTISRDNAKNTVYLRMNSLKPEDTAVYYCAVTAIALYYSSGYYWGQGTQVTVSS,low polyreactivity
10,QVQLVESGGGLVQAGGSLRLSCAASGLTFYHYAMGWYRQAPGKERELVADISSGGSTSYADSVKGRFTISRDNAKNTVYLQMNSLKPEDTAVFYCAADYTWERYHRQIFRLDYWGQGTQVTVSS,low polyreactivity
11,QVQLVESGGGLVQAGGSLRLSCAASGLTFYLYAMGWYRQAPGKERELVAAISSSGSSTYYADSVKGRFTISRDNAKHTVYLQMNSLKPEDTAVYYCAAVASRGWGRYGYWGQGTQVTVSS,high polyreactivity
12,QVQLVESGGGLVQAGGSLRLSCAASGLTFYLYAMGWYRQAPGKERELVAAITTSGGSTYYADSVKGRFTISRDNAKNTVYLQMNSLKPEDTAVYDCATQGAIRGYGYWGQGTQVTVSS,high polyreactivity
13,QVQLVESGGGLVQAGGSLRLSCAASGLTFYQYAMGWYRQAPGKERELVAAISKSAGSTYYADSVKGRFTISRDNAKNTVYLQMNSLKPEDTAVYYCNAARPFTRVPRQTWKMGYWGQGTQVTVSS,high polyreactivity
14,QVQLVESGGGLVQAGGSLRLSCAASGLTFYRYAMGWYRQAPGKERELVAAISFSGGSTYYADSVKGRFTISRDNAKNTVYLQMNSLKPEDTAVYYCAKVDTPGSQRYITPEEGPEYDYWGQGTQVTVSS,high polyreactivity
15,QVQLVESGGGLVQAGGSLRLSCAASGLTFYRYAMGWYRQAPGKERELVAAISSSGGSTYYADSVKGRFTISRDNAKNTVYLQMNSLKPEDTAVYYCAAKRVSVPYGYWGQGTQVTVSS,high polyreactivity
16,QVQLVESGGGLVQAGGSLRLSCAASGLTFYSYAMGWSRQAPGKERELVAAITSSGSITYYADSVKGRFTISRDNAKNTVYLQMNSLKPEDTAVYYCAARPYRVRGQRFEGNYWGQGTQVTVSS,high polyreactivity
17,QVQLVESGGGLVQAGGSLRLSCAASGLTFYSYAMGWYRQAPGKERELVAAITWSGGGTYYADSVKGRFTISRDNAKNTVYLQMNSLKPEDTAVYYCAALSYNGVRYYYWGQGTQVTVSS,high polyreactivity
18,QVQLVESGGGLVQAGGSLRLSCAASGLTFYSYAMGWYRQAPGKERELVAAITWSGGGTYYADSVKGRFTISRDNAKNTVYLQMNSLKPVDTADYYCAADYWGYDIYYGLTERESWGQGTQVTVSS,high polyreactivity
19,QVQLVESGGGLVQAGGSLRLSCAASGLTFYTYAMGWYIQAPGTERELVAAISSGGSTNYADSVKGRFTISRDNAKNTVYLQMNSLKPEDTAVYYCAADPSYYTYFSFDLSESDYWGQGTQVTVSS,low polyreactivity
20,QVQLVESGGGLVQAGGSLRLSCAASGLTFYTYAMGWYRQAPGKERELVAAISTNGGSTYYADSVKGRFTISRDNAKNTVYLQMNSLKPEDTAVYYCAKEGGTYRIFNYWGQGTQVTVSS,low polyreactivity
